These results are taken from PMC6168860, “Dual Role of a Viral Polymerase in Viral Genome Replication and Particle Self-Assembly” (mBio, 2018).

Substitutions are numbered along the chain they refer to. Numbers in names are those of the source.

B1: Pseudomonas phage Φ6 major capsid protein P1 (natural protein, UniProt P11126 1-769, looked up)
chain: MFNLKVKDLNGSARGLTQAFAIGELKNQLSVGALQLPLQFTRTFSASMTSELLWEVGKGNIDPVMYARLFFQYAQAGGALSVDELVNQFTEYHQSTACNPEIWRKLTAYITGSSNRAIKADAVGKVPPTAILEQLRTLAPSEHELFHHITTDFVCHVLSPLGFILPDAAYVYRVGRTATYPNFYALVDCVRASDLRRMLTALSSVDSKMLQATFKAKGALAPALISQHLANAATTAFERSRGNFDANAVVSSVLTILGRLWSPSTPKELDPSARLRNTNGIDQLRSNLALFIAYQDMVKQRGRAEVIFSDEELSSTIIPWFIEAMSEVSPFKLRPINETTSYIGQTSAIDHMGQPSHVVVYEDWQFAKEITAFTPVKLANNSNQRFLDVEPGISDRMSATLAPIGNTFAVSAFVKNRTAVYEAVSQRGTVNSNGAEMTLGFPSVVERDYALDRDPMVAIAALRTGIVDESLEARASNDLKRSMFNYYAAVMHYAVAHNPEVVVSEHQGVAAEQGSLYLVWNVRTELRIPVGYNAIEGGSIRTPEPLEAIAYNKPIQPSEVLQAKVLDLANHTTSIHIWPWHEASTEFAYEDAYSVTIRNKRYTAEVKEFELLGLGQRRERVRILKPTVAHAIIQMWYSWFVEDDRTLAAARRTSRDDAEKLAIDGRRMQNAVTLLRKIEMIGTTGIGASAVHLAQSRIVDQMAGRGLIDDSSDLHVGINRHRIRIWAGLAVLQMMGLLSRSEAEALTKVLGDSNALGMVVATTDIDPSL
notes: major capsid protein P1 of Pseudomonas phage Φ6, wild type; The shell holds 120 copies of P1 (60 asymmetric P1A/P1B dimers) by the introduction; In the recombinant PCs of a11 P1 was co-expressed from pLM687 in E. coli JM109; also called main structural P1 protein; P1 shell; source: E. coli JM109, P1P4 particles from plasmid pLM358, P1 purified as previously described
B2: Φ6 P2 surface mutant HER (histidine-tagged) (enzyme, Pseudomonas phage Φ6, UniProt P11124 1-665, looked up)
chain: MPRRAPAFPLSDIKAQMLFANNIKAQQASKRSFKEGAIETYEGLLSVDPRFLSFKNELSRYLTDHFPANVDEYGRVYGNGVRTNFFGMRHMNGFPMIPATWPLASNLKKRADADLADGPVSERDNLLFRAAVRLMFSDLEPVPLKIRKGSSTCIPYFSNDMGTKIEIAERALEKAEEAGNLMLQGKFDDAYQLHQMGGAYYVVYRAQSTDAITLDPKTGKFVSKDRMVADFEYAVTGGEQGSLFAASKDASRLKEQYGIDVPDGFFCERRRTAMGGPFALNAPIMAVAQPVRNKIYSKYAYTFHHTTRLNKEEKVKEWSLCVATDVSDHDTFWPGWLRDLICDELLNMGYAPWWVKLFETSLKLPVYVGAPAPEQGHTLLGDPSNPDLEVGLSSGQGATDLMGTLLMSITYLVMQLDHTAPHLNSRIKDMPSACRFLDSYWQGAQEIRQISKSDDAILGWTKGRALVGGHALFEMLKEGKVNPSPYMKISYEHGGAFLGDILLYDSRREPGSAIFVGNINSMLNNQFSPEYGVQSGVRDRSKRKRPFPGLAWASMKDTYGACPIYSDVLEAIERCWWNAFGESYRAYREDMLKRDTLELSRYVASMARQAGLAELTPIDLEVLADPNKLQYKWTEADVSANIHEVLMHGVSVEKTERFLRSVMPR
notes: RNA-dependent RNA polymerase P2 of Pseudomonas phage Φ6 with His443 to Ala, Glu444 to Gln and Arg470 to Ala, made from pEM33 (C-terminal hexahistidine tag); source: E. coli BL21(DE3), plasmid pXS29, purified as described for N-terminally histidine-tagged P2; not shown: His6, C-terminal, kept
B3: Φ6 P2 surface mutant W576A (histidine-tagged) (enzyme, Pseudomonas phage Φ6, UniProt P11124 1-665, looked up)
chain: B2 chain with A444H, Q445E, A471R, W577A
notes: RNA-dependent RNA polymerase P2 of Pseudomonas phage Φ6 with Trp576 to Ala, made from pEM33 (C-terminal hexahistidine tag); source: E. coli BL21(DE3), plasmid pXS28, purified as described for N-terminally histidine-tagged P2; not shown: His6, C-terminal, kept
B4: Φ6 P2 surface mutant HERW (histidine-tagged) (enzyme, Pseudomonas phage Φ6, UniProt P11124 1-665, looked up)
chain: B2 chain with W577A
notes: source: E. coli BL21(DE3), plasmid pXS30, purified as described for N-terminally histidine-tagged P2; not shown: His6, C-terminal, kept

Series [1] concerns the molecule itself. As to the kind of experiment: co-sedimentation; in vitro self-assembly of purified P1 and P4 (120:72), no P2, no P7 (P1P4 reaction); room temperature, 90 min, 250 to 350 mM NaCl, 20 mM Tris pH 8.0, 6% PEG 4000, P1 about 0.2 mg/ml; rate-zonal centrifugation in 10% to 30% sucrose, light-scattering zones analysed by SDS-PAGE.
The target in series [2] is B1. As to the kind of experiment: co-sedimentation; in vitro self-assembly of purified P1, P4 (120:72) and P2 or P2 variant at 10×P2 (P1:P2 120:120), no P7; room temperature, 90 min, 250 to 350 mM NaCl, 20 mM Tris pH 8.0, 6% PEG 4000; rate-zonal centrifugation in 10% to 30% sucrose, P2 copies per particle from SDS-PAGE. Conditions: both partners purified.

Turning to B1, the binding result in series [1] is “binds”. B2: in series [2], the “copies of P2 variant per particle” value was 6 copies per particle. B3: the “copies of P2 variant per particle” value in series [2] turned out to be 12 copies per particle. The same measure, in the same setting: under B4 stands 4 copies per particle.
